{
  "source": "patent US20230303666A1",
  "key": {"[1]": {"target": "SARS-CoV-2 spike receptor binding domain with C-terminal 3xFlag tag (RBD-3xFlag) (SARS-CoV-2) (UniProt P0DTC2)"}, "[2]": {"target": "SARS-CoV-2 spike receptor binding domain with C-terminal 3xFlag tag (RBD-3xFlag) (SARS-CoV-2) (UniProt P0DTC2)", "remark": "listed apart in the source"}},
  "data": [
    {"substance": "VHH72", "values": [
      {"measurement": "ELISA A450", "setting": "[1]", "value": 0.287, "unit": "A450"},
      {"measurement": "heated/non heated ratio of ELISA reading", "setting": "[2]", "value": 0.33}
    ]}
  ]
}
